* marks the point of attachment. Decanoyl = CCCCCCCCCC(=O)*; CH2Cl = ClC*
T1: Decanoyl-Arg-Val-Lys-Arg-CMK (FI-I, CALBIOCHEM)
T1 sequence: RVKR

T2: D-9Rac/am
T2 sequence: XXXXXXXXXXXXX

T3: D-6R
T3 sequence: XXXXXXXXXX


Columns and labels:
[1] = test system: T1, Decanoyl-Arg-Val-Lys-Arg-CMK (FI-I, CALBIOCHEM)
D-9Rac/am = test system: T2, D-9Rac/am
D-6R = test system: T3, D-6R
Recombinant furin = assay: Ki for inhibition of furin, given as the comparison in the Boc-RVRR-MCA enzyme assay
Sequence of Recombinant furin (P09958 108-715): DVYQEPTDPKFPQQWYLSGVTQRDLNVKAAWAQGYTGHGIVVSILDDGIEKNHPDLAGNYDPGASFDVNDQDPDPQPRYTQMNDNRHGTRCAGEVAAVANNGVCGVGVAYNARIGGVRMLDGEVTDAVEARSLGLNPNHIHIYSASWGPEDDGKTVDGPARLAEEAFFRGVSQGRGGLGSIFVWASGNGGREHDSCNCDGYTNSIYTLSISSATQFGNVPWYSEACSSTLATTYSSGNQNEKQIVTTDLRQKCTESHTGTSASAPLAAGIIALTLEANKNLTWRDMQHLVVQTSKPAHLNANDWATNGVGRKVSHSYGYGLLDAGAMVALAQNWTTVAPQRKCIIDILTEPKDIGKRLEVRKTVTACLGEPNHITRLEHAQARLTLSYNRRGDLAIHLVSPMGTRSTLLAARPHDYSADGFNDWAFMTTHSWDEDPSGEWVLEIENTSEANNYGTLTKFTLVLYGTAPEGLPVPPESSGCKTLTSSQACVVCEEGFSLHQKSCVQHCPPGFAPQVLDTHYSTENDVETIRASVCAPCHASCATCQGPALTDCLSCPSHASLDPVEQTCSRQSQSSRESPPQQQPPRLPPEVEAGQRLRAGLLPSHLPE

Row | Ki (Recombinant furin) | Molecule | in vitro furin activity (cleavage of Boc-RVRR-MCA) (L-Bel1) | in vitro furin activity (cleavage of Boc-RVRR-MCA) [1] | in vitro furin activity (cleavage of Boc-RVRR-MCA) (D-9Rac/am) | in vitro furin activity (cleavage of Boc-RVRR-MCA) (D-6R)
1 | – | Recombinant furin | inhibited to completion in vitro furin activity | furin activity is inhibited by the specific furin inhibitor Decanoyl (d)-RVKR-chloromethylketone (CMK) | inhibited to completion in vitro furin activity | inhibited to completion in vitro furin activity
2 | 1 nM | Decanoyl-RVKR-CH2Cl [Decanoyl-Arg-Val-Lys-Arg-CMK (FI-I, CALBIOCHEM)] | – | – | – | –

Source: patent US20130323187A1
